For assay [1], the target named is T1, human C-C chemokine receptor type 8 (hCCR8) (human, UniProt P51685 1-355). As to the kind of experiment: cell-based or functional assay.
The target in assay [2] is T1, human C-C chemokine receptor type 8 …. The assay is described as follows: cell-based or functional assay. The source holds these as a separate data set.
The target in a further assay is T2, human CCR4 (hCCR4) (human, UniProt P51679 1-360).
T2 construct: whole, on cells
T2 sequence (looked up): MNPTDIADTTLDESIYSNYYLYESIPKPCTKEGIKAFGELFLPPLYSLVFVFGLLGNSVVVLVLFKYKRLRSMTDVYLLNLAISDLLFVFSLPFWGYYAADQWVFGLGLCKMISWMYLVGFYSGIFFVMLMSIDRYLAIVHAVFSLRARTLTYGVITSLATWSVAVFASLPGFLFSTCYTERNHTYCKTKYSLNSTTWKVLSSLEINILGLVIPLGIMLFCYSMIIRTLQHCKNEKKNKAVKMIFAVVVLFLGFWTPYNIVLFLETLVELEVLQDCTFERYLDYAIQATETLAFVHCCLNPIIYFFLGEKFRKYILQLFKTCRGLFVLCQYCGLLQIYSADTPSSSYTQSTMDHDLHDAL
As to the kind of experiment: flow cytometry on hCCR4-expressing CHO-K1 cells against parental CHO-K1 cells. As to the method: The antibodies were further screened for binding to human CCR4 (hCCR4) by flow cytometry. The antibodies were incubated with CHO-K1 cells and hCCR4-expressing CHO-K1 cells for 60 minutes at 4° C. The cells were washed thoroughly with PBS buffer and were then incubated with FITC-conjugated goat anti-mouse IgG Fc antibody or anti-human IgG Fc antibody. Mean Fluorescence Intensity (MFI) of antibody binding on the cells were analyzed by flow cytometry (Table 7).

Assay [3] concerns the target T1, human C-C chemokine receptor type 8 …. The assay is described as follows: cell-based or functional assay. This is another data set of the same source.
Assay [4] has the same target. The assay is described as follows: KinExA, hCCR8-expressing cells. As to the method: (§1) Humanized antibodies 504E12D8D12-HC1+LC1 and 504E12D8D12-HC1+LC1 (G34A) were tested by the Kinetic Exclusion Assay (KinExA, Sapidyne Instruments) to determine the affinity of binding to hCCR8-overexpressing cells. Briefly, polystyrene particles (#442178, Sapidyne Instruments) were coated with goat anti-human IgG Fc-specific Fab fragment (#109-007-008, Jackson ImmunoResearch Lab) according to the manufacturer's protocol. The antibodies were incubated with serial dilutions of hCCR8-expressing HEK293 cells at room temperature overnight by gently rotating to achieve equilibrium. The final antibody concentrations were adjusted to 0.05 nM and 1 nM, respectively. The supernatants were collected and run on KinExA 3200 (Sapidyne Instruments), and the antibody was captured by the coated polystyrene particles. The captured antibody was detected with Alexa Fluor 647-conjugated goat anti-human IgG (H+L) antibody (#109-605-003, Jackson ImmunoResearch Lab). Data was recorded and analyzed using KinExA Pro software (version 4.3.20).
The affinity of bispecific antibodies FP578-01 and FP578-02 were determined by the kinetic exclusion assay as described above.

Assay [5] concerns the target T3, biotinylated recombinant human CTLA-4-Fc chimera (#786704, BioLegend) (human, UniProt P16410 37-162, biotinylated).
T3 construct: Bought reagent; Fc part of the bought chimera not given
T3 sequence (looked up): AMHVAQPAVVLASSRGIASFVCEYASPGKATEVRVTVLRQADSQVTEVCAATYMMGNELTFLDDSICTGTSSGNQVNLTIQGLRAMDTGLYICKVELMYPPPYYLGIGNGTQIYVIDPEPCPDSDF
As to the kind of experiment: flow cytometry: hCCR8-expressing HEK293 cells pre-loaded with the antibody, washed, incubated with biotinylated human CTLA-4-Fc, detected with PE-streptavidin [panel C]. As to the method:
(§2) Bispecific antibodies FP578-01 and FP578-02 and anti-hCCR8 antibodies 504E12D8D12-HC1+LC1 (G34A) and 504E12D8D12-HC1+LC1 were incubated with hCCR8-expressing HEK293 cells for 1 hour at 4° C. The cells were washed and then incubated with biotinylated recombinant human CTLA-4-Fc chimera (#786704, BioLegend) for 1 hour at 4° C. After the cells were thoroughly washed, CTLA-4 was detected with phycoerythrin (PE)-conjugated streptavidin (#405203, BioLegend) by flow cytometry.

The target in assay [6] is T3, biotinylated recombinant human …. As to the kind of experiment: flow cytometry: hCCR8-expressing HEK293 cells pre-loaded with the antibody, washed, incubated with biotinylated human CTLA-4-Fc, detected with PE-streptavidin [panel D]. How it is done:
as §2

Assay [7] addresses T1, human C-C chemokine receptor type 8 …. The assay is described as follows: cell-based or functional assay. This is another data set of the same source.
Assay [8] has the same target. As to the kind of experiment: cell-based or functional assay. The source holds these as a separate data set.
The target is the same in assay [9]. The assay is described as follows: KinExA, hCCR8-expressing HEK293 cells. As to the method:
as §1

Assay [10] has as its target T3, biotinylated recombinant human …. The assay is described as follows: flow cytometry: hCCR8-expressing HEK293 cells pre-loaded with the antibody, washed, incubated with biotinylated human CTLA-4-Fc, detected with PE-streptavidin [panel B]. As to the method: as §2
Assay [11] shares this target. The assay is described as follows: flow cytometry: hCCR8-expressing HEK293 cells pre-loaded with the antibody, washed, incubated with biotinylated human CTLA-4-Fc, detected with PE-streptavidin [panel A]. How it is done: as §2

Where a chain is given by its changes, count along the chain named. Numbers in names are those of the source. Like-named read-outs stand apart in the source and are kept apart here.

The results in this text go back to US20260109770A1 (REMD BIOTHERAPEUTICS, published 2026).

T1 sequence (P51685 whole entry): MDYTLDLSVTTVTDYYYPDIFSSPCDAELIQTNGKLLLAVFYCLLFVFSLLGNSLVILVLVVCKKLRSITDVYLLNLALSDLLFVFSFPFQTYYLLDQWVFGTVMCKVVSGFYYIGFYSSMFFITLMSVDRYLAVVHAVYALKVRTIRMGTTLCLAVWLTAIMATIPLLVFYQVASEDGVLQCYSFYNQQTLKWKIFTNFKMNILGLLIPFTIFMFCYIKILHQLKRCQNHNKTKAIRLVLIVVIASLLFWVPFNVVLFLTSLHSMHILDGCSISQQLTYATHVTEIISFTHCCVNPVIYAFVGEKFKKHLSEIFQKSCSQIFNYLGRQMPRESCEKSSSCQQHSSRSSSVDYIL

B1: murine-human chimeric (human IgG1) antibody 531B9B1C9 (antibody, V domains shown)
VH: EVQLVESGGGLVQPKGSLKLSCAASGFSFNAYAMNWVRQAPGKGLDWVARIRSKSNNYATYYADSVKDRFTISRDDSESMLYLQMNNLKTEDTAMYFCVRQTYGSRDYAMDYWGQGTSVTVSS
VL: DVVMTQTPLSLPVSLGDQASISCRSSQSLVHSNGNTYLHWYLQKPGQSPKLLIYKVSNRFSGVPDRFSGSGSGTDFTLKISRVEAEDLGVYFCCQSTHVPPYTFGGGTKLEIKR
notes: Chimeric antibody derived from murine antibody A13 and human IgG1
Regarding B1, the “IC50 (nM), antagonist activity measured by β-arrestin assay” value (shortened to “IC50 (nM) … by β-arrestin assay”) in [1] came out at 2.18 nM. The “EC50 of ADCC activity (column head prints IC50 (nM)); ADCC/NFAT-reporter-Jurkat bioassay” value in assay [2] came out at 0.028 nM. Further, the binding result with human CCR4 (hCCR4) is “no binding”.

B2: bispecific antibody FP578-01 (CCR8/CTLA-4) (bispecific antibody, human IgG1, kappa)
heavy: not shown
light: DIVMTQTPPSLPVNPGEPASISCRSSKSLLHSNANTYLYWYLQKPGQSPQLLIYRMSNLASGVPDRFSGSGSGSDFTLKISWVEAEDVGVYYCMQHLEYPFTFGGGTKLEIKRTVAAPSVFIFPPSDEQLKSGTASVVCLLNNFYPREAKVQWKVDNALQSGNSQESVTEQDSKDSTYSLSSTLTLSKADYEKHKVYACEVTHQGLSSPVTKSFNRGEC
Take B2: the “IC50 (nM) … by β-arrestin assay” value in [3] was 4.26 nM. Besides, binding in assay [4] was characterised by a dissociation constant (Kd) of 0.102 nM. Also, in [5], the binding result is “binds”.

B3: bispecific antibody FP578-02 (CCR8/CTLA-4) (bispecific antibody, human IgG1, kappa)
heavy: not shown
light: B2 light with A34G
With B3, the “IC50 (nM) … by β-arrestin assay” value in assay [3] amounted to 3.6 nM. The molecule further had a dissociation constant (Kd) in assay [4] of 0.104 nM. Moreover, in assay [6], the binding result is “binds”.

B4: humanized antibody 41E1C2A5-HC3+LC4 (antibody, human IgG1, kappa, V domains shown)
VH: EVQLVESGGGLVQPGGSLKLSCAASGFSFNAYAMNWVRQASGKGLEWVARIRSKSNNYATYYADSVKDRFTISRDDSKNTAYLQMNSLKTEDTAVYFCVRGGTYGSSSYFDYWGQGTTVTVSS
VL: DIVMTQSPLSLPVTPGEPASIPCRSSKSLLHSNGNTYLYWFLQKPGQSPQLLIYRMSNLASGVPDRFSGSGSGTAFTLKISRVEAEDVGVYYCMQHLEYPFTFGGGTKLEIKR
As for B4, the “IC50 (nM), antagonist activity measured by calcium flux assay” value (“IC50 (nM) … by calcium flux assay” for short) in assay [7] turned out to be 25.3 nM.

B5: humanized antibody 504E12D8D12-HC1+LC1 (antibody, human IgG1, kappa, V domains shown)
VH: EVQLVESGGGLVQPGGSLKLSCAASGFSFNTYAMNWVRQASGKGLEWVGRIRTKSNNYATYYAASVKDRFTISRDDSKNTAYLQMNSLKTEDTAVYYCTRGGSGLNYVRYFDVWGQGTTVTVSS
VL: B4 VL with S7T, L9P, T14N, P22S, F41Y, T74S, A75D, R82W
B5: in [8], the “IC50 (nM) … by calcium flux assay” value came to 8.6 nM. Further, the dissociation constant (Kd) in assay [9] came out at 0.072 nM. Further, the binding result in [10] is “no binding”.

B6: humanized antibody 504E12D8D12-HC1+LC1(G34A) (antibody, human IgG1, kappa, V domains shown)
VH: B5 VH
VL: B4 VL with S7T, L9P, T14N, P22S, G34A, F41Y, T74S, A75D, R82W
Turning to B6, in [8], the “IC50 (nM) … by calcium flux assay” value is 14.4 nM. For the same molecule, the Kd in assay [9] amounted to 0.072 nM. For the same molecule, the binding result in assay [11] is recorded as “no binding”.

B7: humanized antibody 41E1C2A5-HC4+LC2 (antibody, human IgG1, kappa, V domains shown)
VH: B4 VH with K78E
VL: B4 VL with P22S
B7: the “IC50 (nM) … by calcium flux assay” value in assay [7] came to 13.1 nM.
